Reference: patent publication US20180037651A1 (Janssen / Centocor, published 2018)

What follows are binders tested against T1, human GPRC5D (human, UniProt Q9NZD1 1-345) (assay: FACS, human GPRC5D cells).
T1 construct: on transfected HEK293/RBL cells or endogenous on myeloma cells (H929, MM1R, OPM2, LP1, JIM3, patient plasma cells); also called G protein-coupled receptor class C group 5 member D; hGPRC5D
T1 sequence (Q9NZD1 whole entry): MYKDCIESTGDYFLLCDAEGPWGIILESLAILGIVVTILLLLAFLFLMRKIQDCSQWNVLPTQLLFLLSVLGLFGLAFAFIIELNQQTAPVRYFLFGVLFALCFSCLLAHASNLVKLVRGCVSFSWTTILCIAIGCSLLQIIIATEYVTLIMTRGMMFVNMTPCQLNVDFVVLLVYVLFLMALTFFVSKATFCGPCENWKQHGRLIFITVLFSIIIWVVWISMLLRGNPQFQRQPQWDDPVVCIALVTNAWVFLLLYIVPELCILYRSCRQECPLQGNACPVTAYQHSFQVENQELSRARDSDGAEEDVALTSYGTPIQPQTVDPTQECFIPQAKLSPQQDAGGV

Binder	MFI [mfi]
GC5B472 (antibody, V domains shown, GC5B164 PTM variant; also called GC5H277) VH: EVQLVQSGAEVKKPGESLKISCKGSGYSFTSYVIGWVRQMPGKGLEWMGIIYPGASDTRYSPSFQGQVTISADKSISTAYLQWSSLKASDTAMYYCARVYSFGGRHKALFDYWGQGTLVTVSS VL: EIVLTQSPATLSLSPGERATLSCRASQSVSSYLAWYQQKPGQAPRLLIYDASNRATGIPARFSGSGSGTDFTLTISSLEPEDFAVYYCQQRSNWPLTFGQGTKVEIK	1000 to 10000
GC5B476 (antibody, V domains shown, GC5B164 PTM variant; also called GC5H273) VH: EVQLVQSGAEVKKPGESLKISCKGSGYSFTSYYIGWVRQMPGKGLEWMGIIYPGSSDTRYSPSFQGQVTISADKSISTAYLQWSSLKASDTAMYYCARVYSFGGRHKALFDYWGQGTLVTVSS VL: EIVLTQSPATLSLSPGERATLSCRASQSVSSYLAWYQQKPGQAPRLLIYDASNRATGIPARFSGSGSGTDFTLTISSLEPEDFAVYYCQQRSNWPLTFGQGTKVEIK	> 10000
GC5B486 (antibody, V domains shown, GC5B164 PTM variant; also called GC5H263) VH: EVQLVQSGAEVKKPGESLKISCKGSGYSFTSYYIGWVRQMPGKGLEWMGIIYPGESDTRYSPSFQGQVTISADKSISTAYLQWSSLKASDTAMYYCARVYSFGGRHKALFDYWGQGTLVTVSS VL: EIVLTQSPATLSLSPGERATLSCRASQSVSSYLAWYQQKPGQAPRLLIYDASNRATGIPARFSGSGSGTDFTLTISSLEPEDFAVYYCQQRSNWPLTFGQGTKVEIK	> 10000
GC5B483 (antibody, IgG4, V domains shown, GC5B164 PTM variant D55K, W33F; IgG4 S228P, L234A, L235A; also called GC5H266) VH: EVQLVQSGAEVKKPGESLKISCKGSGYSFTSYFIGWVRQMPGKGLEWMGIIYPGKSDTRYSPSFQGQVTISADKSISTAYLQWSSLKASDTAMYYCARVYSFGGRHKALFDYWGQGTLVTVSS VL: EIVLTQSPATLSLSPGERATLSCRASQSVSSYLAWYQQKPGQAPRLLIYDASNRATGIPARFSGSGSGTDFTLTISSLEPEDFAVYYCQQRSNWPLTFGQGTKVEIK	> 10000
GC5B480 (antibody, V domains shown, GC5B164 PTM variant; also called GC5H269) VH: EVQLVQSGAEVKKPGESLKISCKGSGYSFTSYAIGWVRQMPGKGLEWMGIIYPGSSDTRYSPSFQGQVTISADKSISTAYLQWSSLKASDTAMYYCARVYSFGGRHKALFDYWGQGTLVTVSS VL: EIVLTQSPATLSLSPGERATLSCRASQSVSSYLAWYQQKPGQAPRLLIYDASNRATGIPARFSGSGSGTDFTLTISSLEPEDFAVYYCQQRSNWPLTFGQGTKVEIK	1000 to 10000
GC5B477 (antibody, V domains shown, GC5B164 PTM variant; also called GC5H272) VH: EVQLVQSGAEVKKPGESLKISCKGSGYSFTSYVIGWVRQMPGKGLEWMGIIYPGSSDTRYSPSFQGQVTISADKSISTAYLQWSSLKASDTAMYYCARVYSFGGRHKALFDYWGQGTLVTVSS VL: EIVLTQSPATLSLSPGERATLSCRASQSVSSYLAWYQQKPGQAPRLLIYDASNRATGIPARFSGSGSGTDFTLTISSLEPEDFAVYYCQQRSNWPLTFGQGTKVEIK	1000 to 10000
GC5B485 (antibody, V domains shown, GC5B164 PTM variant; also called GC5H264) VH: EVQLVQSGAEVKKPGESLKISCKGSGYSFTSYAIGWVRQMPGKGLEWMGIIYPGKSDTRYSPSFQGQVTISADKSISTAYLQWSSLKASDTAMYYCARVYSFGGRHKALFDYWGQGTLVTVSS VL: EIVLTQSPATLSLSPGERATLSCRASQSVSSYLAWYQQKPGQAPRLLIYDASNRATGIPARFSGSGSGTDFTLTISSLEPEDFAVYYCQQRSNWPLTFGQGTKVEIK	1000 to 10000
GC5B473 (antibody, V domains shown, GC5B164 PTM variant; also called GC5H276) VH: EVQLVQSGAEVKKPGESLKISCKGSGYSFTSYFIGWVRQMPGKGLEWMGIIYPGASDTRYSPSFQGQVTISADKSISTAYLQWSSLKASDTAMYYCARVYSFGGRHKALFDYWGQGTLVTVSS VL: EIVLTQSPATLSLSPGERATLSCRASQSVSSYLAWYQQKPGQAPRLLIYDASNRATGIPARFSGSGSGTDFTLTISSLEPEDFAVYYCQQRSNWPLTFGQGTKVEIK	> 10000
GC5B481 (antibody, V domains shown, GC5B164 PTM variant; also called GC5H268) VH: EVQLVQSGAEVKKPGESLKISCKGSGYSFTSYYIGWVRQMPGKGLEWMGIIYPGKSDTRYSPSFQGQVTISADKSISTAYLQWSSLKASDTAMYYCARVYSFGGRHKALFDYWGQGTLVTVSS VL: EIVLTQSPATLSLSPGERATLSCRASQSVSSYLAWYQQKPGQAPRLLIYDASNRATGIPARFSGSGSGTDFTLTISSLEPEDFAVYYCQQRSNWPLTFGQGTKVEIK	> 10000
GC5B474 (antibody, V domains shown, GC5B164 PTM variant; also called GC5H275) VH: EVQLVQSGAEVKKPGESLKISCKGSGYSFTSYGIGWVRQMPGKGLEWMGIIYPGASDTRYSPSFQGQVTISADKSISTAYLQWSSLKASDTAMYYCARVYSFGGRHKALFDYWGQGTLVTVSS VL: EIVLTQSPATLSLSPGERATLSCRASQSVSSYLAWYQQKPGQAPRLLIYDASNRATGIPARFSGSGSGTDFTLTISSLEPEDFAVYYCQQRSNWPLTFGQGTKVEIK	1000 to 10000
GC5B479 (antibody, V domains shown, GC5B164 PTM variant; also called GC5H270) VH: EVQLVQSGAEVKKPGESLKISCKGSGYSFTSYGIGWVRQMPGKGLEWMGIIYPGSSDTRYSPSFQGQVTISADKSISTAYLQWSSLKASDTAMYYCARVYSFGGRHKALFDYWGQGTLVTVSS VL: EIVLTQSPATLSLSPGERATLSCRASQSVSSYLAWYQQKPGQAPRLLIYDASNRATGIPARFSGSGSGTDFTLTISSLEPEDFAVYYCQQRSNWPLTFGQGTKVEIK	1000 to 10000
GC5B475 (antibody, V domains shown, GC5B164 PTM variant; also called GC5H274) VH: EVQLVQSGAEVKKPGESLKISCKGSGYSFTSYAIGWVRQMPGKGLEWMGIIYPGASDTRYSPSFQGQVTISADKSISTAYLQWSSLKASDTAMYYCARVYSFGGRHKALFDYWGQGTLVTVSS VL: EIVLTQSPATLSLSPGERATLSCRASQSVSSYLAWYQQKPGQAPRLLIYDASNRATGIPARFSGSGSGTDFTLTISSLEPEDFAVYYCQQRSNWPLTFGQGTKVEIK	1000 to 10000
GC5B482 (antibody, V domains shown, GC5B164 PTM variant; also called GC5H267) VH: EVQLVQSGAEVKKPGESLKISCKGSGYSFTSYVIGWVRQMPGKGLEWMGIIYPGKSDTRYSPSFQGQVTISADKSISTAYLQWSSLKASDTAMYYCARVYSFGGRHKALFDYWGQGTLVTVSS VL: EIVLTQSPATLSLSPGERATLSCRASQSVSSYLAWYQQKPGQAPRLLIYDASNRATGIPARFSGSGSGTDFTLTISSLEPEDFAVYYCQQRSNWPLTFGQGTKVEIK	> 10000
GC5B478 (antibody, V domains shown, GC5B164 PTM variant; also called GC5H271) VH: EVQLVQSGAEVKKPGESLKISCKGSGYSFTSYFIGWVRQMPGKGLEWMGIIYPGSSDTRYSPSFQGQVTISADKSISTAYLQWSSLKASDTAMYYCARVYSFGGRHKALFDYWGQGTLVTVSS VL: EIVLTQSPATLSLSPGERATLSCRASQSVSSYLAWYQQKPGQAPRLLIYDASNRATGIPARFSGSGSGTDFTLTISSLEPEDFAVYYCQQRSNWPLTFGQGTKVEIK	> 10000
GC5B487 (antibody, V domains shown, GC5B164 PTM variant; also called GC5H262) VH: EVQLVQSGAEVKKPGESLKISCKGSGYSFTSYVIGWVRQMPGKGLEWMGIIYPGESDTRYSPSFQGQVTISADKSISTAYLQWSSLKASDTAMYYCARVYSFGGRHKALFDYWGQGTLVTVSS VL: EIVLTQSPATLSLSPGERATLSCRASQSVSSYLAWYQQKPGQAPRLLIYDASNRATGIPARFSGSGSGTDFTLTISSLEPEDFAVYYCQQRSNWPLTFGQGTKVEIK	1000 to 10000
GC5B484 (antibody, V domains shown, GC5B164 PTM variant; also called GC5H265) VH: EVQLVQSGAEVKKPGESLKISCKGSGYSFTSYGIGWVRQMPGKGLEWMGIIYPGKSDTRYSPSFQGQVTISADKSISTAYLQWSSLKASDTAMYYCARVYSFGGRHKALFDYWGQGTLVTVSS VL: EIVLTQSPATLSLSPGERATLSCRASQSVSSYLAWYQQKPGQAPRLLIYDASNRATGIPARFSGSGSGTDFTLTISSLEPEDFAVYYCQQRSNWPLTFGQGTKVEIK	1000 to 10000
